Experimental data: the nanobody polyreactivity screen of Harvey et al. (2022)

Experiment: yeast display, Sf9 membrane polyspecificity reagent, FACS + sequencing; frameworks hold sequencing errors
Method in brief: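 Genes from sorted yeast were amplified by colony PCR, read by MiSeq 2 × 250 sequencing and filtered on CDR length. These cells carried a synthetic nanobody library in Saccharomyces cerevisiae BJ5465 and were sorted by FACS into low and high (top ~1%) gates on anti-HA and streptavidin fluorescence. Polyreactivity is labelled according to the gate of origin.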

Row | Sequence | polyreactivity (PSR sort gate)
1 | EEELVESGGGLVQAGGSLRLSCAASGSTFLVYAMGWYRQAPGKERELVAVITYSTVRTYYADSVKGRFTISRDNAKNTVYLQMNSLKPEDTAVYYCNADIEFAVLGQGMDYWGQGTQVTVSS | low polyreactivity
2 | QVHLVESGGGLVQAGGSLRLSCAASGSTFAKYAMGWYRQAPRKERELDASIRLSGGSTYYADSVKGRFTISRDNAKTTVYLLMNSQKPEDTAVYYCNKQFATFYYGFDYYYWGQGTQVTVSS | low polyreactivity
3 | QVQLVESGGGEVQAGGSLRLICAASGRTFQLNAMGWYRQAPGKERELVAAISTRGGSTYYADSVKGRFTISRDNAKNTVYLQMISLKPEDTAVYYCAARVWTANYEMDLWGQGTQVTVSS | high polyreactivity
4 | QVHLVESGGGLVQAGGSLRLSCAASGLIFYRYAMGWYRQAPGKERELVATISRGGRTYYADSVKGRFTNSRDNAKNTVYLQMNSLKPEDTAVYYCNADRQWYSIGSWEYDYWGQGTQVTVSS | high polyreactivity
5 | QVQLVESGGGLVQAGGRLRLSCSASGSTFGYYAMGWYRQAHGKQRELDASITWTGGSTYYADSVKGRFTISRDNAKYTVYLLMNSLKPEDTAVYYCAAQLEASYWLWTGYGYLGQGTQVTVSS | high polyreactivity
6 | QLQLVESGGGLVQAGGSLRLSCAASGSTFAANAMGRYRQAPGKERELVAASTSSGGSTYYADSVKGRFTISRDNAQNTVYLQMNSLKPEDTAVYYCAADRWYITLSIDATISYDYWGQGTQVTVSS | low polyreactivity
7 | QVQLVESGGCLVQAGGSLRLSCAASGSTFRYYAMGWYRQAPGKESELVARITSRAGRTYYADSVKGRFTISRDIAKNTVYLQMNSLKPEDTAVYFCNTRDFSGYVHALSLYDYWGQGTQVTVSS | high polyreactivity
8 | QVQLGESGGGLVQAGGSLRLSCAASGRIIPYYAMGWYRQAPGKERELVAAISLSGGSTYYADSVKGRFTISRDIAKNTVYLQMNSLKPEDTAVYYCNAVASTYGYYWYPGLGYDYWGQGTQVTVSS | low polyreactivity
9 | QVQLVESGGGRVQAGGRIRLRCAASGLIFPGYDMGWYSPAPGKERELVAAISDSGANTYYADSVKGRFTISRDNAKNTVYLQMTSLKQEDTAVYYCAADSSWWYGTSFGRFDYWGQGTQVTVSS | low polyreactivity
10 | QVQLVESGGGLVLAGGSLRLSCAASGRIFLRNAMGWYRQAPGKVRELVATITSRGGSTYYADSVKGRFTISRDKAKNTVYLQMNSLKPEDTAVYYCAADPRRYRGFGYVYGGFYYWGQGTQVTVSS | low polyreactivity
11 | QVQLVESGGGLVQAGGSLRLSCAASVSTFAYYAMGWYRQAPGKERELVAVISVSGDGTSTYYADSVKGRFTISRDNAKNTVYLQMNSLKPEDTAVYNCAAEQVLVGGHTYYLTYDYWGQGTQVTVSS | low polyreactivity
12 | QVQLVESGGGLVQAGRSLRLTCAASGSTFSIYVMGWYRQAPGKERELVAAITWSDGIKYYADSVKGRFTISRDNAKNTVYLQMNSLKRDDTAVYYCRDSHPSYRPGTVRYDYLGQGTQVTVSS | low polyreactivity
13 | QVQLVESGGGLVQAGGSLRLSCAASGSIFGDNAMGWYRQAPGKERELVATISSSDASTYYADSVKGRFTISRDNAKKTVYLQMNSLKPEDTAVYYCAAARSGGYDYWGQGTQVTVSS | low polyreactivity
14 | KVQLVESGGGLVQAGGSLRLSCAASGGTFYRYAMGWYRQAPGKERELVAAITSGSSTYYADSVKGRFTISRDNAKNTVYLQMNSLKPEDTAVYYCAAARYSRLSRTRPGKYGYWGQGTQVTVSS | low polyreactivity
15 | QVQLVESGGVLVQARGILRLICAASGSTFSFNDMGWYRQAPGKERELVAAISRGDNTYYADSVKGRFTISRDNAKNTVYLQMNSLKPDDTSVYYCAADYTYGPPYGYNYWGQGTQVTVSS | low polyreactivity
16 | QVQLVESGGGLVQAGGSLRLSCAASGFTISANTMGCYSQAPGKERELGATISGGSSTNYADSVKGRFTISRDNAKNTVYLQMNSLKPDDTAVYYCAKDGGLRKFDYWGQGTQVTVSS | high polyreactivity
17 | QVQLVESGGGLVQAGGSHRLSCAASGLIFNYYAMGGYRQAPGKERELVASITGGDSTNYADSVKGRFTISRDNAKNTVYLQMNSLKPEDTAVYYCAAEFYGSSYGYRTYDYYYWGQGTQVTVSS | low polyreactivity
18 | QVQLVDSGGGLVQAGGSLRLSCAASAFIFTRYAMGWYRQAPGKERELVAAISWIGTSTYYADSVKGRFTISRDNAKNTVYLQMNSLKPEDTAVYYCAKRSTSQSLQGVYWGLGTQVTVSS | high polyreactivity
19 | QVQLVESGGGLVQAGGSLRLSCAASGFIFITYAMGWYRQAPGKEMELVAAITYSDGSTYYADSVKGRFTISRDNAKNTVYLQMNSLKPEDTAVYYCAADSSTFPADYYWGKGTQVTVSS | low polyreactivity
20 | QVQLVESGGGLVQAGCSLRLSCAASGRIFYYYAMGWYRQAPGKERELVADITWSGGSTYYADSVKGRFTISRDNAKNTVYLQMNSLKPEDTAVYYCNAVYFNYLLEYDYWGQGTQVTVSS | high polyreactivity
21 | QVQLVESGGGLVQAGGSLRLSCAASGSIFNRNAMGWYRQAPGKERELVAAITRRGGSTYYADSVKGRFTISRDNAKNTVYLQMNSLKPEDTAVYYCAAATRKTEYDYWGQGTQVTVSS | low polyreactivity
22 | QVQLVESVGGLVQAGGSLRLSCAASGGIFQPNAMGWYRQAPGKERELVATISQRGGSPYYSDSVKGRFTISRDNAKNTVYLQMNSVKPEDTAVYYCAAEVYYYYDAIYIARYEYWGQGTQVTVSS | low polyreactivity

Row | Sequence | polyreactivity (PSR sort gate)
23 | QVQLVESGGGLVQAGGSLRLSCAASGSTFGKYAMGWYRQATGKERELVAAITNGGRTNYADSVKGRFTISRDNAMNTVYLQMNSMKPEDTAVYYCNKARYGTDDYDYWGQGTQVTVSS | low polyreactivity
24 | QVQLVESGGGLVQAGGSLRLSCAASGSIFVGYAMGWYRQAPGKERELVAAISTRGGSTYYADSVKGRFTISRDNAKNTVYLQMNSLKPEDTAVYDCAADYLDSTYGYVYGWDDYWGQGTQVTVSS | low polyreactivity
25 | QVQLVESGGGLVQAGGSLRLICAASGRTFAINTMGWYRQAPGKERELVATISGSAGNTYYADSVKGRFTISRDNAKNTVYVQMNSLKPEDSAVYSCAARQRKARQIVLLDYWGQGTQVTVSS | high polyreactivity
26 | QVQLVESGGGLVQAGGSLRLSCAASGNIFRRYAMGWYRQAPGKERELVAAISISGGNTYYADSVKGRFTISRDNAKNTVYLQMNSLKPEDTAVYYCNAVGRYSEYGYWGQGTQVTVSS | high polyreactivity
27 | QVQLVESGGGLVQAGGSLRLSCAASGFIFYSNAMGWYRQAPGKERELVAAISRGGGSTYYADSVKGRFTISRDNAKNTVYLQMNSLKPEDTAVYYCAKRRLSPQDDYWGQGTQVTVSS | high polyreactivity
28 | QVQLVESGGGLVQAGGSLRLSCAPSGSIFVTYAMGWYRQAPGKERELVAAISTSGGSTYADSVKGRFTISRVNAKNTVYLQMNSLKPEDTAVYYCNADDPGYAVPWYWFKYDYWGQGTQVTVSS | low polyreactivity
29 | QVQLVESGGGLVQAGGSLRLSCAASGSTFYAYAMGWYRQAPGKERELVAAINSVGSTYYADSVKGRFTISRDNAKNTVYLQMNSLKPEDTAVYYCARGVDYPTSQPPYFRHDYWGQGTQVTVSS | low polyreactivity
30 | QVQLVESGGGLVQAGGSLRLSCAASGRTFSYYSMGWYRQAPGKERELVAAITSGGGRTYYADSVKGRFTISRDNAKNTVYLQMNRLKPEDTAVYYCNALYTLYNGYDYWGQGTQVTVSS | high polyreactivity
31 | QVQLVESGGGLVQAGGSLRLSCAASGSIFSTNGMGWYRQAPGKERELVAAISTGGRTYYADSVKGRFTISRDNAKNTVYLQMNSLKPEDTAVYYCAKRFGYRSTEILDYWGQGTQVTVSS | low polyreactivity
32 | QVQLVESGGGLVQAGGSLRLSCAASGITFSFYTMGWYRQAPGKERELVAAMTQDGGSTYYADSVKGRFTISRDNAKNTVYLQMNSLKPEDTAVYYCASDLVVFVQFDVAVDYYYWGQGTQVTVSS | low polyreactivity
33 | QVQLVESGGGLVQAGGSLRLSCAASGSTFDDNAMGWYRQAPGKERELVASITYRGGSTYYADSVKGRFTISRDNAKNTVYLQMNSLKPEDTAVYYCNADYTGAEYDYWGQGTQVTVSS | low polyreactivity
34 | QVQLVESRGGLVQAGGSLRLSCAASGRIFSNNAMGCYRQAPGKERELVAAITASSGSTYYADSVKGRFTISRDNAKNTVYLQMNSLKPEDTAVYYCAATLRWGFRWYFGFDYWGQGTQLTVSS | high polyreactivity
35 | QVQLVESGGGLVQAGGSLRLSCAASGYTFFYYAMGWYRQAPGKERELVATISGNGGRTYYADSVKGRFTISRDNAKKTVYLQMNSLKPEDTAVYYCAALLYIRSVGYDYWGQGTQVTVSS | low polyreactivity
36 | QVQLGESGGGLVQAGGSLRLSCAASGRILAKYAMGWSRQAPWKEREFVAAISYSGGSTYYADSVKGRFTISRDNAKNTVYLQMNSLKPEDTAVYYCAARYTFDRWKFGYWGQGTQVTVSS | high polyreactivity
37 | QVQLVESVGGLVQAGGSLRLSCAGSGRIFRNYAMGWYRQAPGKERELVAAISDSSGSTYYADSVKGRFTISRDNAKNTVYLQMNILKPEHTAVYFCRYYFGSGYYYWGQGTQVTVSS | high polyreactivity
38 | QVQLVESGGGLVQAGGSLRLSCAASGSISYFNAMGWYIQAPGKERELVAAISRGATTYADSVKGRFTISRDNAKNTVYLQMNSLKPEDTAVYYCNAGLRGNIRKSYRYDSWGQGTQVTVSS | high polyreactivity
39 | QVQLVESGGGLVQAGGSLRLSCAASGITFGQYAMGWYRQAPGKERELVAVITSGGDTYYADSVKGRFTISRDNAKNTVYLQINSLKPEDTAVYYCNADDDLTSIYRYDYWGQGTQVTVSS | low polyreactivity
40 | QVQLVESGGGLVQAGCSLRLSCAASGFTFQHNAMGWYRQAPGKERELVAAISRGGSTNYADSVKGRFTISRDNAKNTVYLQMNSLKPEDTAVYYCAAYDWRVLWGYDYWGQGTQVTVSS | low polyreactivity
41 | QVQLVESGGGLVQAGGSLRLSCAASGSLVGYYPMGWYRQAPGKERELVAAISRSGGSTYYADSVKGRFSISRDNAKNTVYLQMNSLKPEDTAVYYCATSRVRSAGRDYWGQGTQVTVSS | high polyreactivity
42 | QFQLVESGGGLVQAGGSLRLSCAASGRIFDTYVMRWYRQAPGKERDLVAAISGSGGSTYYAYSVKGRFTISRDNAKNTVYLQMNSLKPEDTEVYYCAAARRYYAYRYDYWGQGTQVTVSS | high polyreactivity
43 | QDQLVESGGGLVQAGGSLRLSCAASGLIFYGNAMGWYRQAPGQERELVADISGSSVRTYYADSVKGRFTISRDNAKNTVCLQMNSLKPEDTAVYYCAATYGYLYTGLSRYDYWGQGTQVTVSS | low polyreactivity
